Results published in patent publication US20220290113.

Tested on: Nme2Cas9 (Neisseria meningitidis)
Test: cell_activity
Settings: PAM N4CC; HEK293T, TIDE

Sequence | activity
GCCUCCCUGCAGGGCUGCUCCC / GCCTCCCTGCAGGGCTGCTCCCCAGCCCAA / TTGGGCTGGGGAGCAGCCCTGCAGGGAGGC [TS6 sgRNA spacer ; TS6 LINC01588 target + PAM] | 20 % indels
GGAGUCGCCAGAGGCCGGUGGUGG / GGAGTCGCCAGAGGCCGGTGGTGGATTTCCTC / GAGGAAATCCACCACCGGCCTCTGGCGACTCC [TS16 sgRNA spacer ; TS16 LINC01588 target + PAM] | 28 % indels
GUGUGUCCCUCUCCCCACCCGUCC / GTGTGTCCCTCTCCCCACCCGTCCCTGTCCGG / CCGGACAGGGACGGGTGGGGAGAGGGACACAC [TS47 sgRNA spacer ; TS47 VEGFA target + PAM] | 23.1 % indels
